The Kd is the equilibrium constant for the complex coming apart. High values mean a looser complex, low ones a tighter complex.

Several values for one entry are separate records, joined by “and”; a condition that tells them apart may be missing. Equal entries are not always repeated.

In the assay the target is C3b (human) (UniProt P01024). Briefly: SPR; C3b amine-coupled to a Biacore C1 chip; dilution series of CFH (from 2.5 to 0.019 uM), preincubated with or without a 2-fold molar excess of PspCN, flowed over; Biacore T200, 25 °C, 10 mM HEPES, 150 mM NaCl, 0.05% P20; 1:1 steady-state model; three experiments on different chips. Background: Surface plasmon resonance follows binding to a sensor surface in real time, without labels.
Chain of C3b (human) (P01024 23-667, chain 1 of 2): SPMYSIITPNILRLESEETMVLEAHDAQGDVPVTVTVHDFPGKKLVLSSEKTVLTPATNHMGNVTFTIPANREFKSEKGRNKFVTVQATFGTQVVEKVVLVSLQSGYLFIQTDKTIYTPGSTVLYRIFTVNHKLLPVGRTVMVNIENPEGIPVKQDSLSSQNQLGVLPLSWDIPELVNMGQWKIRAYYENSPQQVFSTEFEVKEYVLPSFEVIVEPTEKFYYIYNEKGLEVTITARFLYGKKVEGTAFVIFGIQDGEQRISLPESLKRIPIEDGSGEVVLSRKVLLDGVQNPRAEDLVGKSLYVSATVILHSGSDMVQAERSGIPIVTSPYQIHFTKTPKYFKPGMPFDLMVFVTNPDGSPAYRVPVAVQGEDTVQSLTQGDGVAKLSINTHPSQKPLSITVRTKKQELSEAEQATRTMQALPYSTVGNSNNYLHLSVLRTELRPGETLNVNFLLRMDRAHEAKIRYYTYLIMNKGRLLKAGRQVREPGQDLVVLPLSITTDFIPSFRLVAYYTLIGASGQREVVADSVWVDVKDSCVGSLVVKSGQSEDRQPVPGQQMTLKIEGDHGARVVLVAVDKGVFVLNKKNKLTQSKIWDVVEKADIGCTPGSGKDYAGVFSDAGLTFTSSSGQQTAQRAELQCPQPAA
Chain of C3b (human) (P01024 749-1663, chain 2 of 2): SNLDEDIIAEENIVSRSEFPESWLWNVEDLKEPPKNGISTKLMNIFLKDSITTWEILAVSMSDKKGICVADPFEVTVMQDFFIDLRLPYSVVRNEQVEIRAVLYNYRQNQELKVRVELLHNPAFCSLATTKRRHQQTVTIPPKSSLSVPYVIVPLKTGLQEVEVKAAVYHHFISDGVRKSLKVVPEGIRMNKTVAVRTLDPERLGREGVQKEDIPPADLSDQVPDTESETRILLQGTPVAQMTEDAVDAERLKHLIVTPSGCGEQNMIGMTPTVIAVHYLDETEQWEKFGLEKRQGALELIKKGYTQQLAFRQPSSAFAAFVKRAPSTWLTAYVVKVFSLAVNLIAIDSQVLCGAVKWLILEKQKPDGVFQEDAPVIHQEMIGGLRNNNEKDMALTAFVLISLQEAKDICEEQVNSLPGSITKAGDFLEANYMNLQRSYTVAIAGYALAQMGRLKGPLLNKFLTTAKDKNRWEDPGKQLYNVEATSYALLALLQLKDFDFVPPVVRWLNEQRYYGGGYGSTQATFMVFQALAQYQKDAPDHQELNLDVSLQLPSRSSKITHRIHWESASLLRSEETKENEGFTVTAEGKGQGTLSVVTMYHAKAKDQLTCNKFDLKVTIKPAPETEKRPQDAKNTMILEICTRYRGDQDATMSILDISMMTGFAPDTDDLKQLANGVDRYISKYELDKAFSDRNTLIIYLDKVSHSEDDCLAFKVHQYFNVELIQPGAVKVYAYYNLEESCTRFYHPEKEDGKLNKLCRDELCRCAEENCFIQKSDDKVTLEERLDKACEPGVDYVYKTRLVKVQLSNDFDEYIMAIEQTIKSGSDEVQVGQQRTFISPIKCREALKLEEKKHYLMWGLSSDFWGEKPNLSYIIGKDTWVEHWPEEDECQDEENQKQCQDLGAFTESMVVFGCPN
“CFH purified from human plasma (plasma CFH) (from UniProt P08603 19-1231) (natural protein)” registered a Kd of 0.33 µM.
Turning to “I62-CFH–PspCN complex (from UniProt P08603 19-1231; Q9KK19 37-140)”, the Kd is 0.62 µM and 0.5 µM.
Consider “LA-CFH–PspCN complex (from UniProt P08603 19-1231; Q9KK19 37-140)”, for which the Kd is 0.7 µM and 0.6 µM.
For “R53H-CFH–PspCN complex (from UniProt P08603 19-1231; Q9KK19 37-140)” the value was 1 µM and 0.58 µM.

The record behind these values is article PMC5555194.
